Measurements reported in patent US20230256092A1 (SHIONOGI, published 2023).
Like-named read-outs stand apart in the source and are kept apart here.

T1: human CCR4 (human, UniProt P51679 1-360)
T1 construct: full length, on Expi293 cells; also called hCCR4
T1 sequence: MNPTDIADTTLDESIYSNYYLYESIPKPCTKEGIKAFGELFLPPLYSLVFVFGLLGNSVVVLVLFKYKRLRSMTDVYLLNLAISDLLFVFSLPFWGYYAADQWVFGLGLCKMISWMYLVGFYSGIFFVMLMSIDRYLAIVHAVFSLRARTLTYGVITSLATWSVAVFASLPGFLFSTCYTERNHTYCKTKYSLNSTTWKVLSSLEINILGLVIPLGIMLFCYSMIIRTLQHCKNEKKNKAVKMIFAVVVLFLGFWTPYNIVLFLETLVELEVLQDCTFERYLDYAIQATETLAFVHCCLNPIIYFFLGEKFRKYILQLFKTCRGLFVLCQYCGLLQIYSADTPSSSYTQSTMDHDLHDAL

T2: mouse CCR8 (mouse, UniProt P56484 1-353)
T2 construct: full length, on Expi293 cells; also called mCCR8
T2 sequence: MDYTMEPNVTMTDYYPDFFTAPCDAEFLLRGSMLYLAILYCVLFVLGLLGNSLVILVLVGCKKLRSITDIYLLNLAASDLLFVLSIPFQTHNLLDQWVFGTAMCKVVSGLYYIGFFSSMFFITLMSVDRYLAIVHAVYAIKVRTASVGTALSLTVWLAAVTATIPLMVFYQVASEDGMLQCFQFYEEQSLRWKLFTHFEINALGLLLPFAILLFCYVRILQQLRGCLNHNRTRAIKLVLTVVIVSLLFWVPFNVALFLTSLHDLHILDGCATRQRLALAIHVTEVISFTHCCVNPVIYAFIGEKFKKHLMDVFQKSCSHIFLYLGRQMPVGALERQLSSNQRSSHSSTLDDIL

T3: N-ter hCCR4-hCCR8 (human)
T3 construct: chimera on Expi293 cells; also called human CCR8 with the N-terminal region substituted with that of human CCR4
T3 chain: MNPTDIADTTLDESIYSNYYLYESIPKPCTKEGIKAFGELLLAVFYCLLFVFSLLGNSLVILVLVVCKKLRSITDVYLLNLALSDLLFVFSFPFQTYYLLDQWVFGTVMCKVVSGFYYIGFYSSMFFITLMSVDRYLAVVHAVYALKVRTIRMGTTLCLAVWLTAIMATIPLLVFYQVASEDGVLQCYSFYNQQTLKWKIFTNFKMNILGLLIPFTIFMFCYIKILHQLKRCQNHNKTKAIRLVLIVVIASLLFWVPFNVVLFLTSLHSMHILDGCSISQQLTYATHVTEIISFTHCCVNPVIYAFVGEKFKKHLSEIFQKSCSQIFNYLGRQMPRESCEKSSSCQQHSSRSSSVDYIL


How the values were obtained:
human CCR8 [1] = biological target: T4, human CCR8 (human, UniProt P51685 1-355); test: cell-based or functional assay
human CCR8 [2] = biological target: T4, human CCR8; test: cell-based or functional assay; remark: listed apart in the source
human CCR8 [3] = biological target: T4, human CCR8; test: cell-based or functional assay; remark: listed apart in the source
human CCR8 [4] = biological target: T4, human CCR8; test: cell-based or functional assay; remark: listed apart in the source
human CCR8 [5] = biological target: T4, human CCR8; test: cell-based or functional assay; remark: listed apart in the source
human CCR8 [6] = biological target: T4, human CCR8; test: cell-based or functional assay; remark: listed apart in the source
hCCR8 (Y17A) = biological target: T5, hCCR8 (Y17A) (human, UniProt P51685 1-355); test: flow cytometry on Expi293 transfectants
T5 construct: also called mutant in which Y at position 17 of human CCR8 is substituted for A

human CCR4 = biological target: T1, human CCR4; test: flow cytometry on Expi293 transfectants
mouse CCR8 = biological target: T2, mouse CCR8; test: flow cytometry on Expi293 transfectants
N-ter hCCR4-hCCR8 = biological target: T3, N-ter hCCR4-hCCR8; test: flow cytometry on Expi293 transfectants
loop1 hCCR4-hCCR8 [7] = biological target: T6, loop1 hCCR4-hCCR8 (human, UniProt P51685 1-355); test: flow cytometry on Expi293 transfectants
T6 construct: chimera on Expi293 cells; hCCR8 94-107 replaced; also called loop1-human CCR4-substituted human CCR8

loop3 hCCR4-hCCR8 = biological target: T7, loop3 hCCR4-hCCR8 (human, UniProt P51685 1-355); test: FCM, Expi293 transfectants; blank cell = same binding activity as wild-type hCCR8
T7 construct: chimera on Expi293 cells; hCCR8 264-280 replaced

loop2 hCCR4-hCCR8 = biological target: T8, loop2 hCCR4-hCCR8 (human, UniProt P51685 1-355); test: FCM, Expi293 transfectants; Δ = significantly reduced binding activity vs wild-type hCCR8
T8 construct: chimera on Expi293 cells; hCCR8 172-202 replaced; also called loop2-human CCR4-substituted human CCR8

loop1 hCCR4-hCCR8 [8] = biological target: T6, loop1 hCCR4-hCCR8; test: as above
hCCR8 (K35A) = hCCR8 (K35A) (human, UniProt P51685 1-355); test: flow cytometry on Expi293 transfectants

| IC50 (nM), Ca2+ influx by 200 nM hCCL1 (human CCR8 [1]) | IC50 (nM), Ca2+ influx by 200 nM hCCL1 (human CCR8 [2]) | IC50 ratio (WT IC50/mutant IC50) (human CCR8 [3]) | IC50 ratio (WT IC50/mutant IC50) (human CCR8 [4]) | Neutralizing activity IC50 (nM), Ca2+ influx by 100 nM hCCL1 (human CCR8 [5]) | IC50 (nM), Ca2+ influx by 200 nM hCCL1 (human CCR8 [6]) | binding result (hCCR8 (Y17A)) | binding result (human CCR4) | binding result (mouse CCR8) | binding result (N-ter hCCR4-hCCR8) | binding result (loop1 hCCR4-hCCR8 [7]) | binding result (loop3 hCCR4-hCCR8) | binding result (loop2 hCCR4-hCCR8) | binding result (loop1 hCCR4-hCCR8 [8]) | binding result (hCCR8 (K35A)) | Binder |
| --- | --- | --- | --- | --- | --- | --- | --- | --- | --- | --- | --- | --- | --- | --- | --- |
| 0.46 nM |  |  |  |  |  |  |  |  |  |  |  |  |  |  | h19D7 (IGKV2-18/IGHV3-73) (antibody, V domains shown) VH: EVQLVESGGGLVQPGGSLKLSCAASGFTFSTYAMYWVRQASGKGLEWVGRIRSKSNNYATYYADSVKDRFTISRDDSKNTAYLQMNSLKTEDTAVYYCTRGGYGNYRYAMDYWGQGTTVTVSS VL: DIVMTQTPPSLPVNPGEPASISCRSSKSLLHSNGNTYLYWYLQKPGQSPQLLIYRVSNLASGVPDRFSGSGSGSDFTLKISWVEAEDVGVYYCMQHLEYPFTFGQGTKLEIK |
|  | 0.15 nM | 1 ratio |  |  |  |  |  |  |  |  |  |  |  |  | h10A11 (IGKV4-1/IGHV3-15 T94R) (antibody, V domains shown) VH: EVQLVESGGALVKPGGSLRLSCAASGFTFSTYALYWVRQAPGKGLEWVGRIRSKSNNYATYYADSVKDRFTISRDDSKNTLYLQMNSLKTEDTAVYYCTRARFYYSDYGYAMDYWGQGTLVTVSS VL: DIVMTQSPDSLAVSLGERATINCRSSKSLLHSNGNTYLYWYQQKPGQPPKLLIYRMSNLASGVPDRFSGSGSGTDFTLTISSLQAEDVAVYYCMQHLEYPLTFGQGTKLEIKR |
|  | 0.17 nM |  | 1 ratio |  |  |  |  |  |  |  |  |  |  |  | h10A11 (IGKV4-1/IGHV3-73) (antibody, V domains shown) VH: EVQLVESGGGLVQPGGSLKLSCAASGFAFNTYALYWVRQASGKGLEWVGRIRSKSNNYATYYADSVKDRFTISRDDSKNTAYLQMNSLKTEDTAVYYCTRARFYYSDYGYAMDYWGQGTLVTVSS VL: DIVMTQSPDSLAVSLGERATINCRSSKSLLHSNGNTYLYWYQQKPGQPPKLLIYRMSNLASGVPDRFSGSGSGTDFTLTISSLQAEDVAVYYCMQHLEYPLTFGQGTKLEIKR |
|  |  |  |  | 0.4 nM | 1.19 nM | no binding | no binding | no binding | no binding | no binding | binds | binds |  |  | 2C7 (antibody, V domains shown, mouse hybridoma antibody, purified) VH: QVQLKQSGPSLVQPSQSLSITCTVSGFSLTAYGVHWIRQSPGKGQEWLGVIWRGGSTDYNAAFMSRLTITKDNSKSQVFFKMNSLQADDTAIYYCAKKGGSYAMDYWGQGTSVTVSS VL: DVVLTQTPLSLPVSLGGQASISCRSSQSLVHSNGNTYLHWYLQKPGQSPKLLIYKVSNRFSGVPDRFSGSGSGTDFTLKISRVEAEDLGVYFCSQSTQVPLTFGAGTKLELKR |
|  |  |  |  | 0.09 nM |  | no binding | no binding | no binding | no binding |  | binds | binds | binds |  | 27G1 (antibody, V domains shown, mouse hybridoma antibody, purified) VH: EVQLVESGGRLVQPKGSLKLSCAASGFAFNTYAMYWIRQAPGKGLEWVARIRSKSNNYATYYADSVKDRFTISRDDSQSMLYLQMNNLKTEDTAMYYCVRARFYYSDYGYAMDYWGQGTSVTVSS VL: DIVMTQAAPSVPVTPGESVSISCRSSKSLLHSNGNTYLYWFLQRPGQSPQLLIYRMSNLASGVPDRFSGSGSGTAFTLRISRVEAEDVGVYYCMQHLEYPLTFGAGTKLELKR |
|  |  |  |  | 1.56 nM | 3.03 nM | no binding | no binding | no binding | no binding | no binding | binds | binds |  |  | 8F7 (antibody, V domains shown, mouse hybridoma antibody, purified) VH: EVQLVESGGRLVQPKRSLKLSCAASGFTFNPYAMYWIRQAPGQGLEWVARIRSKSNNYATYYADSVKDRFTISRDDSQSMLYLQMNNLKTEDTAMYYCVRGHQGTMDYWGQGTSVTVSS VL: DIVMTQAAPSVPVTPGESVSISCRSSKSLLHSNGNTYLYWFLQRPGQSPQLLTYRMSNLASGVPDRFSGSGSGTAFTLRISRVEAEDVGVYYCMQHLEYPFTFGGGTKLEIKR |
|  |  |  |  | 0.32 nM | 0.36 nM | no binding | no binding | no binding | no binding |  | binds | binds | binds | no binding | 1H4 (antibody, V domains shown, mouse hybridoma antibody, purified) VH: EVQLVESGGRLVQPKGSLKLSCAASGFTFNTYAMYWIRQAPGKGLEWVARIRSKSNNYATYYADSVKDRFTISRDDSQSMLYLQMNNLKTEDTAMYYCVRARFYYSDYGYAMDYWGQGTSVTVSS VL: DIVMTQAAPSVPVTPGESVSISCRSSKSLLHSNGNTYLYWFLQRPGQSPQLLIYRMSNLASGVPDRFSASGSGTAFTLRISRVEAEDVGVYYCMQHLEYPLTFGAGTKLELKR |
|  | 0.23 nM |  |  | 0.08 nM | 0.23 nM | no binding | no binding | no binding | no binding |  | binds | binds | binds |  | 10A11 (antibody, V domains shown, mouse hybridoma antibody, purified; also called m10A11) VH: EVQLVESGGRLVQPKGSLKLSCAASGFAFNTYALYWIRQAPGKGLEWVARIRSKSNNYATYYADSVKDRFTISRDDSQSMLYLQMNNLKTEDTAMYYCVRARFYYSDYGYAMDYWGQGTSVTVSS VL: DIVMTQAAPSVPVTPGESVSISCRSSKSLLHSNGNTYLYWFLQRPGQSPQLLIYRMSNLASGVPDRFSGSGSGTAFTLRISRVEAEDVGVYYCMQHLEYPLTFGAGTKLELKR |
